# Results from patent US20220034872.
# Tested on: GST fusion recombinant OCT4 protein
substance,measurement,value
GST fusion recombinant CSNK2A1,"in vitro kinase assay, OCT4 phosphorylation read by SDS-PAGE and western blotting","in the presence of OCT4 and CSNK2A1, OCT4 phosphorylation was recognized by a phosphorylated antibody"
